In patent KR20140148294A (dated 2014) one finds EC50 data, which are given here for one molecule.

For the assay, the target named is IGF-1R 단백질 (Sino biological Inc. 10164H08H) (UniProt P08069 31-932). The experiment in a line: ELISA, coated IGF-1R (50 ng/well), anti-human Fc-HRP. In general terms: In an ELISA, binding on a coated surface is turned into a signal by an enzyme label.
Sequence of IGF-1R 단백질 (Sino biological Inc. 10164H08H) (P08069 31-932 limits assumed): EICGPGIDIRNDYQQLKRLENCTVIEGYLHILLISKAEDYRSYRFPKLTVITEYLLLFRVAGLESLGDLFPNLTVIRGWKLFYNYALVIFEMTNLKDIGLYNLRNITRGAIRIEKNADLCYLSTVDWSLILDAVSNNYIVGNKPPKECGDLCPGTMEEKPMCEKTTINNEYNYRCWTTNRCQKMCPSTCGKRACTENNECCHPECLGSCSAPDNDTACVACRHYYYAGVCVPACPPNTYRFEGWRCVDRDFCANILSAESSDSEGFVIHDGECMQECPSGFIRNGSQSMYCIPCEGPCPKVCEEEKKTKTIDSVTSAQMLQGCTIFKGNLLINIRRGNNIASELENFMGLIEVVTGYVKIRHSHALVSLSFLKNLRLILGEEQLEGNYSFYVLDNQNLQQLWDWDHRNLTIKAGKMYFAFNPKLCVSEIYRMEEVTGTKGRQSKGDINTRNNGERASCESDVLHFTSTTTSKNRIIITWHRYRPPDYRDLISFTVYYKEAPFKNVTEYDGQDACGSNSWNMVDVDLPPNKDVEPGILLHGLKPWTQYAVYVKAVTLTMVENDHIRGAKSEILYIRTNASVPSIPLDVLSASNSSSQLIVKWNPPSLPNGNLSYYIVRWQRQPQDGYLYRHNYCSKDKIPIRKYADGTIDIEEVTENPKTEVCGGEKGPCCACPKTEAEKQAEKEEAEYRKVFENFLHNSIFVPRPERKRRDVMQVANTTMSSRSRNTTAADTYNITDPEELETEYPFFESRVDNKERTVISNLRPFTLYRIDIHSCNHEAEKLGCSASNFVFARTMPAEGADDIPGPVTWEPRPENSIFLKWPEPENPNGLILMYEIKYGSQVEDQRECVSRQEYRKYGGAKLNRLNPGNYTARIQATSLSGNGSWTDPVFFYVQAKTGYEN

B1: MKJP2 인간 단일클론항체 (antibody, human IgG1, lambda, V domains shown)
VH: EVQLLESGGGLAQPGGSLRLSCAASGFTFSGYAMSWVRQAPGKGLEWVSAISSDGGSTYYADSVKGRFTISRDNSKNTLYLQMNSLRAEDTAVYYCARDPWFSRWTAFDYWGQGTLVTVSS
VL: QSVLTQPPSASGTPGQRVTISCSGSSSNIGNNAVNWYQQLPGTAPKLLIYSNSKRPSGVPDRFSGSKSGTSASLAISGLRSEDEADYYCGTWDYSLSGYVFGGGTKLTVLG
notes: Human anti-IGF-1R antibody without IL2, used as the control in the ELISA; also called 1229 클론
What is called EC50 is the concentration that produces a half-maximal response. A high value points to a need for much substance. B1 registered a 50% effective concentration (EC50) of 0.148 nM.
